Laboratory results: paper PMC11260447, “OptoLacI: optogenetically engineered lactose operon repressor LacI responsive to light instead of IPTG” (Nucleic Acids Research, 2024)

Target: the molecule itself
Assay: SEC; purified protein incubated 1 hour in the dark, then Superdex 200 Increase 10/300 GL under dark condition; 20 mM Hepes pH 7.5, 200 mM NaCl

B1: OptoLacI^L (LacI^(W220F, 311-LOV2)) (other, E. coli | Avena sativa, UniProt P03023 1-311, looked up)
chain: MKPVTLYDVAEYAGVSYQTVSRVVNQASHVSAKTREKVEAAMAELNYIPNRVAQQLAGKQSLLIGVATSSLALHAPSQIVAAIKSRADQLGASVVVSMVERSGVEACKAAVHNLLAQRVSGLIINYPLDDQDAIAVEAACTNVPALFLDVSDQTPINSIIFSHEDGTRLGVEHLVALGHQQIALLAGPLSSVSARLRLAGWHKYLTRNQIQPIAEREGDFSAMSGFQQTMQMLNEGIVPTAMLVANDQMALGAMRAITESGLRVGADISVVGYDDTEDSSCYIPPLTTIKQDFRLLGQTSVDRLLQLSQGQLERIEKNFVITDPRLPDNPIIFASDSFLQLTEYSREEILGRNCRFLQGPETDRATVRKIRDAIDNQTEVTVQLINYTKSGKKFWNLFHLQPMRDQKGDVQYFIGVQLDGTEHVRDAAEREGVMLIKKTAENIDEAAAVKGNQLLPVSLVKRKTTLAPNTQTASPRALADSLMQLARQVSRLESGQ
notes: LOV2 domain of Avena sativa phototropin 1 (AsLOV2), residues 408-543; source: E. coli BL21 (DE3), plasmid pML364, purified (Ni-NTA twice, size exclusion chromatography)
binding result: binds
